In general, stoichiometry N refers to the number of molecules, sites or subunits per partner or assembly.

Where “and” joins values, the source holds several entries; their conditions need not be identical. Equal entries are not always repeated.

The results in this text go back to publication PMC7486400, “Allosteric coupling between α-rings of the 20S proteasome” (Nature Communications, 2020).

B2: Thermoplasma acidophilium 20S proteasome α-subunit, wild type, full-length (natural protein, UniProt P25156 1-233, looked up)
chain: MQQGQMAYDRAITVFSPDGRLFQVEYAREAVKKGSTALGMKFANGVLLISDKKVRSRLIEQNSIEKIQLIDDYVAAVTSGLVADARVLVDFARISAQQEKVTYGSLVNIENLVKRVADQMQQYTQYGGVRPYGVSLIFAGIDQIGPRLFDCDPAGTINEYKATAIGSGKDAVVSFLEREYKENLPEKEAVTLGIKALKSSLEEGEELKAPEIASITVGNKYRIYDQEEVKKFL
notes: 20S proteasome α-subunit of Thermoplasma acidophilum, full-length; For the asymmetric CP the wild-type ring was co-expressed from α-His and α-MBP (both C-terminal, TEV site before the tag); All tags were removed after final purification, so the subunit is untagged in the EM samples; All these forms are kept as one molecule here; also called αWT; αwt
B3: Thermoplasma acidophilium 20S proteasome α-subunit R28L (natural protein, UniProt P25156 1-233, looked up)
chain: MQQGQMAYDRAITVFSPDGRLFQVEYALEAVKKGSTALGMKFANGVLLISDKKVRSRLIEQNSIEKIQLIDDYVAAVTSGLVADARVLVDFARISAQQEKVTYGSLVNIENLVKRVADQMQQYTQYGGVRPYGVSLIFAGIDQIGPRLFDCDPAGTINEYKATAIGSGKDAVVSFLEREYKENLPEKEAVTLGIKALKSSLEEGEELKAPEIASITVGNKYRIYDQEEVKKFL
notes: also called proximal α-ring of PAN-αWTββα_(K66A)
B4: Thermoplasma acidophilium 20S proteasome α-subunit K66A (natural protein, UniProt P25156 1-233, looked up)
chain: MQQGQMAYDRAITVFSPDGRLFQVEYAREAVKKGSTALGMKFANGVLLISDKKVRSRLIEQNSIEAIQLIDDYVAAVTSGLVADARVLVDFARISAQQEKVTYGSLVNIENLVKRVADQMQQYTQYGGVRPYGVSLIFAGIDQIGPRLFDCDPAGTINEYKATAIGSGKDAVVSFLEREYKENLPEKEAVTLGIKALKSSLEEGEELKAPEIASITVGNKYRIYDQEEVKKFL
notes: 20S proteasome α-subunit of Thermoplasma acidophilum, full-length, K66A; In the EM samples the K66A ring (distal ring of the asymmetric CP) is untagged; also called α_(K66A); distal α-ring; source: E. coli BL21(DE3), purified (strep-trap column)

The target of data set [1] is in vitro assembled asymmetric Thermoplasma acidophilium 20S core particle αWTββα_(K66A) (Thermoplasma acidophilium) (UniProt P25156).
The target in data set [2] is in vitro assembled symmetric wild-type Thermoplasma acidophilium 20S core particle αWTββαWT (Thermoplasma acidophilium) (UniProt P25156).
For data set [3], the target named is in vitro assembled asymmetric Thermoplasma acidophilium 20S core particle αWTββα_(K66A) (Thermoplasma acidophilium) (UniProt P25156). This is another data set of the same source.
Data set [4] concerns the target in vitro assembled symmetric wild-type Thermoplasma acidophilium 20S core particle αWTββαWT (Thermoplasma acidophilium) (UniProt P25156). This is another data set of the same source.
For data set [5], the target named is B2. Description: cryo-EM structure; single-particle cryo-EM of asymmetric CP with one activator bound, with or without substrate (LFP, GFP-ssrA), C7 symmetry applied, about 3 Å; PAN complexes with nucleotide. The conditions noted are these: both partners purified.
Data set [6] addresses B3. The description is as above. The conditions noted are these: both partners purified.
Data set [7] deals with B4. Description: in vitro reconstitution with two-step affinity purification; two types of purified α-subunits and β-subunit mixed 1:2:1 in Tris buffer pH 7.5, 1 h at 37 °C; strep-trap column (α K66A), TEV cleavage of all tags except MBP, then MBP column (wild-type α). The conditions noted are these: both partners purified.
Data set [8] concerns the molecule itself. The data set can be described thus: negative stain EM; α-subunits expressed in E. coli and purified alone; Supplementary Fig. 1c–i (panel c is negative stain EM; the method of the other panels was not shown).
Data set [9] deals with the molecule itself. Description: cryo-EM structure; single-particle cryo-EM of asymmetric CP with one activator bound, with or without substrate (LFP, GFP-ssrA), C7 symmetry applied, about 3 Å; PAN complexes with nucleotide.

As to “PA26 (Trypanosoma brucei) with the point mutation V230F (natural protein)”, in [1], the Kcat (1/min) of LFP peptidase activity, CP with PA26 (singly capped) amounted to 25.5 min⁻¹ and the Vmax (μM/min) of LFP peptidase activity, CP with PA26 (singly capped) worked out at 409 µM/min. Also, in [2], the Kcat (1/min) of LFP peptidase activity, CP with PA26 (doubly capped) was 50.3 min⁻¹ and the Vmax (μM/min) of LFP peptidase activity, CP with PA26 (doubly capped) was determined as 805 µM/min.

As to “PA26PANc: PA26 (Trypanosoma brucei) with E102A and the last eight C-terminal residues replaced with the last eight C-terminal residues of PAN”, in data set [3], the Kcat (1/min) of LFP peptide degradation, 16 nM CP with 112 nM activator (singly capped) was 14.4 min⁻¹ and the Vmax (μM/min) of LFP peptide degradation, 16 nM CP with 112 nM activator (singly capped) worked out at 230 µM/min. In data set [4], the Kcat (1/min) of LFP peptide degradation, 16 nM CP with 112 nM activator (doubly capped) was 12.4 min⁻¹ and the Vmax (μM/min) of LFP peptide degradation, 16 nM CP with 112 nM activator (doubly capped) is 199 µM/min.

B1: Thermoplasma acidophilium 20S proteasome β-subunit, pro-peptide truncated (residues 2–8 removed) (natural protein)
chain: TTTVGITLKDAVIMATERRVTMENFIMHKNGKKLFQIDTYTGMTIAGLVGDAQVLVRYMKAELELYRLQRRVNMPIEAVATLLSNMLNQVKYMPYMVQLLVGGIDTAPHVFSIDAAGGSVEDIYASTGSGSPFVYGVLESQYSEKMTVDEGVDLVIRAISAAKQRDSASGGMIDVAVITRKDGYVQLPTDQIESRIRKLGLIL
notes: 20S proteasome β-subunit of Thermoplasma acidophilum; residues 2–8 truncated to simulate the autoproteolytic removal of the N-terminal pro-peptide; A protease (TEV) site stands before the tag; Tags were removed after final purification of the assembled CP; also called β monomers; source: E. coli BL21(DE3), purified (Ni-NTA)
Consider B1, for which the binding result in [5], in [6] and in data set [7] was “binds” in each case.

As for B2, the “stoichiometry N” value in data set [8] was 7 and 14. Moreover, the binding result in data set [7] is reported as “binds”.

Turning to B3, the binding result in [9] is “binds”.

Regarding B4, the binding result in [9] is “binds”.
